# Experimental data taken from US20250092426, “CAS ENDONUCLEASES AND RELATED METHODS” (Flagship Pioneering Innovations VII, LLC, published 2025).
# T1: CasEnd-20 (synthetic construct)
# T1 chain: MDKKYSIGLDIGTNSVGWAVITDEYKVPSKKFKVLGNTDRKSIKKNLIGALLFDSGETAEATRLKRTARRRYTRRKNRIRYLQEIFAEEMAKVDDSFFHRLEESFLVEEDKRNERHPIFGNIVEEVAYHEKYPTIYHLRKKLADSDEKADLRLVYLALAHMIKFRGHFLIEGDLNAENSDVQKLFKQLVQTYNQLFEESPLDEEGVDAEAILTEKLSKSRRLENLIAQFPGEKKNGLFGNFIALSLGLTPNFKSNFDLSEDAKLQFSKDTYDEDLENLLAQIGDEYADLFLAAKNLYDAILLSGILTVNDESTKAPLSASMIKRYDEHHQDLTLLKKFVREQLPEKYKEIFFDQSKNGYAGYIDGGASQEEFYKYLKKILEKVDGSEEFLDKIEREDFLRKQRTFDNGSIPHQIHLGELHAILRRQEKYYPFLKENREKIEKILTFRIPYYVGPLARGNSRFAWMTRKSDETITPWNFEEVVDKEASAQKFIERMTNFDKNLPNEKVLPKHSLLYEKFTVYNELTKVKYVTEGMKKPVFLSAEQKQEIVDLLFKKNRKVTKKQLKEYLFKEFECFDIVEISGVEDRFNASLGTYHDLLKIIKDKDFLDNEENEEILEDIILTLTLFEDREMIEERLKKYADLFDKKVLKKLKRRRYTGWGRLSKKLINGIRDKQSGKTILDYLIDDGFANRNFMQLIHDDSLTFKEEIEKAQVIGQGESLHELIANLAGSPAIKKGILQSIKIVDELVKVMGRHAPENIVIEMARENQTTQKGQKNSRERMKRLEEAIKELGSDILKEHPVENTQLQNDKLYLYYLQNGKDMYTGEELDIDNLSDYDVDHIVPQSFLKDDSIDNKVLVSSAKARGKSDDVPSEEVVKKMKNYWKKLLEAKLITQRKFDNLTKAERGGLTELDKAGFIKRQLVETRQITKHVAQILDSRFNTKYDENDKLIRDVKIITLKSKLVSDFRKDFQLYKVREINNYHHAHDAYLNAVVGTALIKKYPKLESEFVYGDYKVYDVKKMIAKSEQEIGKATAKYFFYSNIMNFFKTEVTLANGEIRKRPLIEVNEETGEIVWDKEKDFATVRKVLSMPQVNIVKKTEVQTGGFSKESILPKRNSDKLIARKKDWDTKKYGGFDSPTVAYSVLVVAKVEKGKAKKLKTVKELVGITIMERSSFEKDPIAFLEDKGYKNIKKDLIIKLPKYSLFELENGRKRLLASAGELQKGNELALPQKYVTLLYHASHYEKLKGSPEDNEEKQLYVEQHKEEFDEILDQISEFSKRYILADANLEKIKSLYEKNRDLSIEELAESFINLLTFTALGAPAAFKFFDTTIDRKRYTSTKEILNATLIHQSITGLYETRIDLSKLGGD
# B1: HBB template RNA ; HBB protospacer (ssRNA ; dsDNA)
# RNA: CAUGGUGCACCUGACUCCUGGUUUUAGAGCUAGAAAUAGCAAGUUAAAAUAAGGCUAGUCCGUUAUCAACUUGAAAAAGUGGCACCGAGUCGGUGCACGGCAGACUUCUCUGCCGGAGUCAGGUGC
# DNA 1: CATGGTGCACCTGACTCCTG
# DNA 2: CAGGAGTCAGGTGCACCATG
# Biological target: T1, CasEnd-20
# Assay: cell_activity; +++; K562, second nick guide SEQ 380; PAM not stated
# Procedure: The ability of the candidate endonucleases, including endonucleases 1-38 (CasEnds 1-38) (set forth in Table 1 and SEQ ID NOS: 1-38, respectively), to mediate target nucleic acid editing in cells was assessed by amplicon sequencing of the endogenous hemoglobin subunit beta (eHBB) gene, wherein the percent of amplicons displaying the intended edit is measured. The editing system is comprised of a template RNA (designed to introduce the Single Nucleotide Polymorphism), a second nick guide RNA, and a fusion protein consisting of retroviral reverse transcriptase and the individual subject Cas endonuclease.
# Briefly, 250 ng of plasmid DNA encoding the subject fusion protein (containing one of the subject CasEnds), 250 ng each of plasmid DNA encoding the template RNA and the second nick guide RNA were added to 15 μL Lonza SF buffer containing 250,000 K562 cells. Nucleofection was mediated utilizing program FF-120-DA on a Lonza nucleofector. The day of nucleofection was marked as day 0. At day 3, the cells were harvested and subjected to lysis buffer treatment overnight. Genomic DNA was extracted and used for targeted amplicon sequencing to evaluate the performance of each Cas endonucleases based on their percent edit efficiencies.
binder,measurement,value
B1,activity,≥ 100 % of reference
